In US10513545B2, “Fusion polypeptide in which anti-inflammatory polypeptide and ferritin monomer fragment are bound and pharmaceutical composition for preventing and treating inflammatory diseases, containing same as active ingredient” (KYUNGPOOK NATIONAL UNIVERSITY INDUSTRY-ACADEMIC COOPERATION …, priority 2015, dated 2019):
Like-named read-outs stand apart in the source and are kept apart here.

Tests used:
soluble EPCR (sEPCR) [1] = biological target: T1, soluble EPCR (sEPCR) (Homo sapiens, UniProt Q9UNN8); assay: solid-phase ELISA for binding affinity to soluble EPCR; details: FIG. 9, read-out: Kd(app) for the interaction with sEPCR
T1 construct: 96-well flat microtiter plates were coated with soluble EPCR
T1 sequence (Q9UNN8 18-210 limits assumed): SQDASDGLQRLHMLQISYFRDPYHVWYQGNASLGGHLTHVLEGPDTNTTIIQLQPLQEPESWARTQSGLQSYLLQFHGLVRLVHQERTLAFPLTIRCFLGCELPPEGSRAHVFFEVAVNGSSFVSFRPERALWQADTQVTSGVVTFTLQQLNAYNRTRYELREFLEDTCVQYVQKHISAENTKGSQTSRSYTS
Method: 9. Enzyme-Linked Immunosorbent Assays (ELISA) for Evaluating EPCR (Endothelial Protein C Receptor) Binding Affinity
To evaluate the interaction of the wild-type PC, PC-Gla peptides, TFG, and TFMG with EPCR, 96-well flat microtiter plates were coated with soluble EPCR in 20 mM carbonate-bicarbonate buffer (pH 9.6) containing 0.02% sodium azide, overnight at 4° C. After the plates were washed three times in TBS buffer (0.1 M NaCl, 0.02 M Tris-HCl, pH 7.4) containing 0.05% Tween 20, the plates were incubated with wild-type PC, PC-Gla peptides, TFG, and TFMG (7-1000 nM) diluted in the buffer for 1 h. After the plates were rinsed again, they were incubated with a goat anti-protein C polyclonal antibody (1:1000) for 1 h. Then, the plates were washed and incubated with rabbit anti-goat IgG (KPL, MD, 1:1000) for 1 h. After washing, the plates were incubated with 2,2′-azino-di(3-ethylbenzthiazoline-6-sulfonate) (ABTS; KPL, Gaithersburg, Md.). Colorimetric analysis was performed by measuring absorbance values at 405 nm.

soluble EPCR (sEPCR) [2] = biological target: T1, soluble EPCR (sEPCR); details: in an aqueous solution; read-out: previously reported binding affinity for PC to sEPCR; cited from earlier work
PAR-1 = PAR-1 cleavage assay in transfected HUVECs (ALP activity); format: cell-based; details: FIG. 13
Method: HUVECs at 90% confluence in 24-well plates were transiently transfected with pRc/RSV containing ALP-PAR-1-TF cDNA in antibiotic-free Opti-MEM medium using Lipofectamine (Invitrogen) according to the manufacturer's instruction. On the following day, cells were washed and incubated in serum-free medium for 5 h. Cells were then incubated for an additional hour with thrombin, TRAP, TFG, or TFMG. Conditioned medium was collected and centrifuged to remove cellular debris. Supernatant was collected, and ALP (alkaline phosphatase) activity was measured using EnzoLyte™ p-nitrophenyl phosphate alkaline phosphatase assay kit (AnaSpec, San Jose, Calif.) according to the manufacturer's instructions.

Kd (soluble EPCR (sEPCR) [1]) [nM] | Substance | Kd (soluble EPCR (sEPCR) [2]) [nM] | PAR-1 cleavage activity (ability to activate PAR-1) (PAR-1)
~31.3 | wild type PC: wild-type Protein C, comparator in the EPCR binding ELISA [reference compound] | 29 | –
– | TRAP peptides: thrombin receptor agonist peptide TFLLRN (SEQ ID NO: 3), activates PAR-1 (Thrombin receptor agonist peptide (TRAP)) [reference compound] | – | strong similarities
